Reference: patent US20210340181A1

How the values were obtained:
[1] = biological target: T1, αvβ6 integrin (purified), P06756; test: competitive ELISA vs BtLAP
T1 chain 1: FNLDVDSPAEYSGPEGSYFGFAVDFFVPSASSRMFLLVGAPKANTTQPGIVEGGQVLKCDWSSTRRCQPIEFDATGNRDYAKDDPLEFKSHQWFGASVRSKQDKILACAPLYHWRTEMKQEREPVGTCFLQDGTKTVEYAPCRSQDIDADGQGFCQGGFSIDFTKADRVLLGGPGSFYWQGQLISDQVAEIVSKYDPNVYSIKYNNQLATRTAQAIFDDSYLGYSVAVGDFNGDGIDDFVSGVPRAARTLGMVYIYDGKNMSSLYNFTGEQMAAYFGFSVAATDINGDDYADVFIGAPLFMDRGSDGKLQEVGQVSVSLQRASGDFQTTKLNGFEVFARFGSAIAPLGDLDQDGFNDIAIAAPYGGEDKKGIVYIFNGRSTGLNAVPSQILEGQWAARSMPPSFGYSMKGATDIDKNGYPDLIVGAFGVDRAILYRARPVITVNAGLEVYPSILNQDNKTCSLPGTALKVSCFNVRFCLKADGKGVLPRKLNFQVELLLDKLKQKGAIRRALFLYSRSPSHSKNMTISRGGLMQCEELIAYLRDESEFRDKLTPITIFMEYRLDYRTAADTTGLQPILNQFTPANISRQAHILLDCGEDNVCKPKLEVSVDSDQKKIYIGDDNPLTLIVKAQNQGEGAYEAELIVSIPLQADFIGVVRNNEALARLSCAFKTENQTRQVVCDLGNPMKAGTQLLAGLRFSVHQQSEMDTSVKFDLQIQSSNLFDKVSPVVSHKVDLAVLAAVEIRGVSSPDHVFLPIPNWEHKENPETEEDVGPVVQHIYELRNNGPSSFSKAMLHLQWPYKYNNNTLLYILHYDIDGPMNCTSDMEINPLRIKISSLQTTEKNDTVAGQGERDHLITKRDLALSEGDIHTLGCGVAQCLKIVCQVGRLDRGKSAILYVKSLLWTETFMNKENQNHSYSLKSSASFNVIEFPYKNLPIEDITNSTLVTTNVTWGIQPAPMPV
T1 chain 2: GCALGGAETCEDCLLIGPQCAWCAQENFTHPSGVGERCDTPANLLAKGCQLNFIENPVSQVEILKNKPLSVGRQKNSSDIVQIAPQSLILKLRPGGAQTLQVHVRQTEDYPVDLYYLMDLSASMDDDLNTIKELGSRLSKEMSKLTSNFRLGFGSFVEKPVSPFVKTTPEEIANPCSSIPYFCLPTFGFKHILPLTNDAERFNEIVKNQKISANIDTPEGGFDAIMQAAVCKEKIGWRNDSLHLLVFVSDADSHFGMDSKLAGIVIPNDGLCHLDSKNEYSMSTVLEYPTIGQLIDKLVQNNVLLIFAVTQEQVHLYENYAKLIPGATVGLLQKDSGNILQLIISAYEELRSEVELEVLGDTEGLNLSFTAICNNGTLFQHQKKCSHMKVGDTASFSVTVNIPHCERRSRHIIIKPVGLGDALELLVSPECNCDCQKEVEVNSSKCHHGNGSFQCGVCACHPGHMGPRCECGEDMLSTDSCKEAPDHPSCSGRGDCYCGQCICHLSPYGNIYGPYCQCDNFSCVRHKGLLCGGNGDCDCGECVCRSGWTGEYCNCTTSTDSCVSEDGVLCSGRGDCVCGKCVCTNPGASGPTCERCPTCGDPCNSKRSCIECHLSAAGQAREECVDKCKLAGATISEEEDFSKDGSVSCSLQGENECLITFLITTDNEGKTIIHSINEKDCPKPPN

[2] = biological target: T2, αvβ6 integrin on DX3puroβ6 (αvβ6+) cells (human), P06756; test: 18F peptide cell binding, αvβ6+ over αvβ6- cells
T2 chain 1: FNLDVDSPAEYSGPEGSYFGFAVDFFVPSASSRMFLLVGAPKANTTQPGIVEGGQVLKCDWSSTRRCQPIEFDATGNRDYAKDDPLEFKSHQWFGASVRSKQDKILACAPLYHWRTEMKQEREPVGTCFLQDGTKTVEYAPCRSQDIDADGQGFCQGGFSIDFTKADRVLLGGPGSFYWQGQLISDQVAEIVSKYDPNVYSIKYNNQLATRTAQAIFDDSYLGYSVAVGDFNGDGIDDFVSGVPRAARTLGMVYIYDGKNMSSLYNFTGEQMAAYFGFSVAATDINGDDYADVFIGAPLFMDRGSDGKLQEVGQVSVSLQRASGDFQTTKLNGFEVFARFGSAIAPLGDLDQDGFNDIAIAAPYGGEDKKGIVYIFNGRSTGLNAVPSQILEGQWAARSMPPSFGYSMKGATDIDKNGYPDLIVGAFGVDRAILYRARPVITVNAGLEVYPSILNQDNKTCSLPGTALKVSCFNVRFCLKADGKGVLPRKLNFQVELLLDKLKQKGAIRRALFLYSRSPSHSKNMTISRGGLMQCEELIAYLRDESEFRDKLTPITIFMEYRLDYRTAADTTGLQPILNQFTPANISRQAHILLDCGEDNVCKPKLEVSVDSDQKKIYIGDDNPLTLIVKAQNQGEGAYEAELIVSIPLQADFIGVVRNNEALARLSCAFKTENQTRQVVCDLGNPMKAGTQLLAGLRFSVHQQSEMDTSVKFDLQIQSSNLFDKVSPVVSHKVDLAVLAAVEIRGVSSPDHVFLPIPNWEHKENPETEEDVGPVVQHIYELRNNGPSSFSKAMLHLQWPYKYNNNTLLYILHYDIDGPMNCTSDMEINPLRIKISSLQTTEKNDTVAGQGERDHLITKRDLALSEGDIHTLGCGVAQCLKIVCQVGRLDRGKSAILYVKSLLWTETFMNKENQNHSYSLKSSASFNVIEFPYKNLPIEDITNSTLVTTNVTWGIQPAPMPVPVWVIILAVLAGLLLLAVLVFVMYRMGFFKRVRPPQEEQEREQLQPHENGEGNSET
T2 chain 2: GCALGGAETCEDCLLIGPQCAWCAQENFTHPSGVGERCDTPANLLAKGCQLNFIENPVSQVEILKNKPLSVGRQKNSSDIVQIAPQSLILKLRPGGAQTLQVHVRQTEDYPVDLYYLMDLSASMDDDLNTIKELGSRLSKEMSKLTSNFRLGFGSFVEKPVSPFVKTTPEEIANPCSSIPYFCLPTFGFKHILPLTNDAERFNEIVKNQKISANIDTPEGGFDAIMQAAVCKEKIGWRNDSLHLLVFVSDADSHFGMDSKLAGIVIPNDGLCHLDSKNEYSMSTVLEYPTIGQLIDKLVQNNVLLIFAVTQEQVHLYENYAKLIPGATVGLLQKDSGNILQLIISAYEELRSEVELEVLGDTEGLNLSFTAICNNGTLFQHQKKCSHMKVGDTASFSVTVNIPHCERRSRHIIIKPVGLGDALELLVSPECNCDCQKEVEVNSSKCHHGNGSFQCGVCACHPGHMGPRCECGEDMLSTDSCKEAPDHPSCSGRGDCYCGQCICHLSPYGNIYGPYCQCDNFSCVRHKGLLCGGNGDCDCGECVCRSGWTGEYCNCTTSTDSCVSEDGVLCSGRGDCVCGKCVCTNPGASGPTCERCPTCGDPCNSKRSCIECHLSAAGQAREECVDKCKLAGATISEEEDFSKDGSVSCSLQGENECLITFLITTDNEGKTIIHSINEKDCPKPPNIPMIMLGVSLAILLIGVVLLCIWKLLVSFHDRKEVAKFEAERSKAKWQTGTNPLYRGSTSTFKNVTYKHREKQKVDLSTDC

[3] = biological target: T3, αvβ8 integrin (purified), P06756; test: competitive ELISA vs BtLAP
T3 chain 1: T1 chain 1
T3 chain 2: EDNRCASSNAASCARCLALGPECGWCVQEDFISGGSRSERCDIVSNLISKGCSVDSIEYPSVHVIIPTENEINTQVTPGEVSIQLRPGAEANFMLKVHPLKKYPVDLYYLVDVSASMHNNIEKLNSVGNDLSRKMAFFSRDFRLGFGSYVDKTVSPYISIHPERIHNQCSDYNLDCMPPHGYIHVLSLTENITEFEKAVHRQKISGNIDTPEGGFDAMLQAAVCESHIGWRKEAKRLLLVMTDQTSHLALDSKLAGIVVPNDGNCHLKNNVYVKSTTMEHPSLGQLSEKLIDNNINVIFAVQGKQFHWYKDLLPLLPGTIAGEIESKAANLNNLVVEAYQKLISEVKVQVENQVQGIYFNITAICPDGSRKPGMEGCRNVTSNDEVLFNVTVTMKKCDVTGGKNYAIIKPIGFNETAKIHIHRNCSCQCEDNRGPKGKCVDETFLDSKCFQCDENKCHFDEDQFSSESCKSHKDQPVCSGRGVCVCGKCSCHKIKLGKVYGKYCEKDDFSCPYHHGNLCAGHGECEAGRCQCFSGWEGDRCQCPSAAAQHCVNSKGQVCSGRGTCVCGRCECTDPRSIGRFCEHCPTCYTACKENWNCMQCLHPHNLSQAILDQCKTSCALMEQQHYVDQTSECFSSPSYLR

[4] = biological target: T2, αvβ6 integrin on DX3puroβ6 (αvβ6+) …; test: 18F peptide binding to DX3puroβ6 (αvβ6+) cells, 1 h, gamma counting

B1: RTD-9mer, FB-… (peptide)
peptide: RTDLDSLRT
modifications: not checked
For B1, the IC50 [1] was 22 nM and the DX3puroβ6 (αvβ6+)/DX3puro (αvβ6-) selectivity ratio [2] was 1.7.

B2: P3, …(FB) (peptide)
peptide: RGDLADLRK
modifications: not checked
B2 gave an IC50 [1] of 420 nM, an IC50 [3] of 200 nM and a % binding to cells [4] of 10.8%. The DX3puroβ6 (αvβ6+)/DX3puro (αvβ6-) selectivity ratio [2] was 1.4.

B3: P1, …(FB) (peptide)
peptide: VGDLTYLKK
modifications: not checked
With B3 the IC50 [1] was 450 nM, the IC50 [3] was 5300 nM and the % binding to cells [4] was 12.8%. For the same binder, the DX3puroβ6 (αvβ6+)/DX3puro (αvβ6-) selectivity ratio [2] was 1.1.

B4: SFLAP3-8mer, FB-GRGDLGRL (peptide)
peptide: GRGDLGRL
modifications: not checked
Work on B4 yielded an IC50 [1] of 89 nM and a DX3puroβ6 (αvβ6+)/DX3puro (αvβ6-) selectivity ratio [2] of 1.4.

B5: A20-8mer, FB-RGDLQVLA (peptide)
peptide: RGDLQVLA
modifications: not checked
Work on B5 yielded a DX3puroβ6 (αvβ6+)/DX3puro (αvβ6-) selectivity ratio [2] of 7.8.

B6: KL3, FB-RSDLTPLF (peptide)
peptide: RSDLTPLF
modifications: not checked
B6 was tested, and the IC50 [1] was 1700 nM, the % binding to cells [4] was 0.7% and the DX3puroβ6 (αvβ6+)/DX3puro (αvβ6-) selectivity ratio [2] was 0.9.

B7: A20-14mer, FB-… (peptide)
peptide: RGDLQVLAQKVART
modifications: not checked
Binder B7 has a DX3puroβ6 (αvβ6+)/DX3puro (αvβ6-) selectivity ratio [2] of 8.4.
